Assay results reported in publication PMC4495445.

B1: Gda1p: N41D (protein)
parent chain: MAPIFRNYRFAIGAFAVIMLILLIKTSSIGPPSIARTVTPNASIPKTPEDISILPVNDEPGYLQDSKTEQNYPELADAVKSQTSQTCSEEHKYVIMIDAGSTGSRVHIYKFDVCTSPPTLLDEKFDMLEPGLSSFDTDSVGAANSLDPLLKVAMNYVPIKARSCTPVAVKATAGLRLLGDAKSSKILSAVRDHLEKDYPFPVVEGDGVSIMGGDEEGVFAWITTNYLLGNIGANGPKLPTAAVFDLGGGSTQIVFEPTFPINEKMVDGEHKFDLKFGDENYTLYQFSHLGYGLKEGRNKVNSVLVENALKDGKILKGDNTKTHQLSSPCLPPKVNATNEKVTLESKETYTIDFIGPDEPSGAQCRFLTDEILNKDAQCQSPPCSFNGVHQPSLVRTFKESNDIYIFSYFYDRTRPLGMPLSFTLNELNDLARIVCKGEETWNSVFSGIAGSLDELESDSHFCLDLSFQVSLLHTGYDIPLQRELRTGKKIANKEIGWCLGASLPLLKADNWKCKIQSA
B2: Gda1p: N335D (protein)
parent chain: MAPIFRNYRFAIGAFAVIMLILLIKTSSIGPPSIARTVTPNASIPKTPEDISILPVNDEPGYLQDSKTEQNYPELADAVKSQTSQTCSEEHKYVIMIDAGSTGSRVHIYKFDVCTSPPTLLDEKFDMLEPGLSSFDTDSVGAANSLDPLLKVAMNYVPIKARSCTPVAVKATAGLRLLGDAKSSKILSAVRDHLEKDYPFPVVEGDGVSIMGGDEEGVFAWITTNYLLGNIGANGPKLPTAAVFDLGGGSTQIVFEPTFPINEKMVDGEHKFDLKFGDENYTLYQFSHLGYGLKEGRNKVNSVLVENALKDGKILKGDNTKTHQLSSPCLPPKVNATNEKVTLESKETYTIDFIGPDEPSGAQCRFLTDEILNKDAQCQSPPCSFNGVHQPSLVRTFKESNDIYIFSYFYDRTRPLGMPLSFTLNELNDLARIVCKGEETWNSVFSGIAGSLDELESDSHFCLDLSFQVSLLHTGYDIPLQRELRTGKKIANKEIGWCLGASLPLLKADNWKCKIQSA
B3: Gda1p: N280D (protein)
parent chain: MAPIFRNYRFAIGAFAVIMLILLIKTSSIGPPSIARTVTPNASIPKTPEDISILPVNDEPGYLQDSKTEQNYPELADAVKSQTSQTCSEEHKYVIMIDAGSTGSRVHIYKFDVCTSPPTLLDEKFDMLEPGLSSFDTDSVGAANSLDPLLKVAMNYVPIKARSCTPVAVKATAGLRLLGDAKSSKILSAVRDHLEKDYPFPVVEGDGVSIMGGDEEGVFAWITTNYLLGNIGANGPKLPTAAVFDLGGGSTQIVFEPTFPINEKMVDGEHKFDLKFGDENYTLYQFSHLGYGLKEGRNKVNSVLVENALKDGKILKGDNTKTHQLSSPCLPPKVNATNEKVTLESKETYTIDFIGPDEPSGAQCRFLTDEILNKDAQCQSPPCSFNGVHQPSLVRTFKESNDIYIFSYFYDRTRPLGMPLSFTLNELNDLARIVCKGEETWNSVFSGIAGSLDELESDSHFCLDLSFQVSLLHTGYDIPLQRELRTGKKIANKEIGWCLGASLPLLKADNWKCKIQSA
B4: Gda1p: N41D/N280D/N335D (protein)
parent chain: MAPIFRNYRFAIGAFAVIMLILLIKTSSIGPPSIARTVTPNASIPKTPEDISILPVNDEPGYLQDSKTEQNYPELADAVKSQTSQTCSEEHKYVIMIDAGSTGSRVHIYKFDVCTSPPTLLDEKFDMLEPGLSSFDTDSVGAANSLDPLLKVAMNYVPIKARSCTPVAVKATAGLRLLGDAKSSKILSAVRDHLEKDYPFPVVEGDGVSIMGGDEEGVFAWITTNYLLGNIGANGPKLPTAAVFDLGGGSTQIVFEPTFPINEKMVDGEHKFDLKFGDENYTLYQFSHLGYGLKEGRNKVNSVLVENALKDGKILKGDNTKTHQLSSPCLPPKVNATNEKVTLESKETYTIDFIGPDEPSGAQCRFLTDEILNKDAQCQSPPCSFNGVHQPSLVRTFKESNDIYIFSYFYDRTRPLGMPLSFTLNELNDLARIVCKGEETWNSVFSGIAGSLDELESDSHFCLDLSFQVSLLHTGYDIPLQRELRTGKKIANKEIGWCLGASLPLLKADNWKCKIQSA

Test: DAPI staining after 24 h in sporulation medium
Conditions: glycan lost; control: gda1Δ strain with wild-type GDA1

other: sporulation efficiency, no change:
B1, B2, B3, B4
